From the DeepSol protein solubility set

Assay: soluble on expression in E. coli; label from the status in PepcDB or PDB records

Sequence	soluble on expression in E. coli
MGSDKIHHHHHHMAFTSDSLAIFLAVLDAGSFSAAARKLGRVPSAVSMAIAQLEAELDLPLFDRATRKALPTNAALALEPQARQVICQLNLLDAQALQLHKGLEKRLTIAMAPELQTGRWSQPLEILAQAFPSLEVEVRSATQTEAIRLLHDGSVQLALVFERPGIDERESFLEAGSQLLVAVASPRHPAGQNSGSPLPEEAFAEQRQIIVASGKATGSDPRMVLSRRIWLTDSYLATLDLVQSGLGWAYLPQPLVEPLIASGALAEVRFDNMANRLRLWVDIIWIKSRPLGLGARRYLEVMRQLFEKEPPRA	not soluble
MSLEEDIQKQIIAAKEEAHDETIWGKPANDIITGIGNNSGVRPQRAIWEMVQNARDVSLNGKADIVFERQHDCFIFQHNGISFTNNTLEALILQTSSKVRNDSVQVGQYGTGFLTTHKLGLKFTLSSSVQLLENEQLFHHFSNFLIDRSSTDKKQMRDSLKKQIKITEEWARNPTIVSGPSSLTTFRYIQEHEVEKMNTKEAFKASSALAPYVIALNPCVNSISFVDNVEDCKELYIRKSTEIINTCDFYNVVKVTIDKCETESCDFTVLMLQSKETVEESGEPKVIVILPIKELESKSVAFALSKDVPNLFIYLPLLGTEQWGLNFIFHSPLFTCDKDSRDSLRFVGNGQNNDVDAERNKGIIQLADVIVSHYITENLSNIQDCMYLAKVAFNLHNSDEALANYYKSLQSSWVKKYESFPFVITKNGNIITRQAKVFDKELFDACLENKDLLTAVYNVTVQIYGTDYLPLETNMLFWSETLLQWYEAESFNPHLIHLSDIVEYIDKNNITTIGEENLWCIDNYIANSKQIGLFTKYKLLPTKNGELRVREDLLNPIIHDESLLKILDSLLPNDVASFIHTRFVLFEDVKIEEYDHNKVKESMRLLVSELSDLQKGHEIYRTNILAGLDVDSNKYEQNKLSDNHINALMGFYAYIVNIGGEAFQYKMIHLLADFYNIDLKSGEAYIKEIYDWRTVAPLLIKDALFRFTLMDSQKQAENAEWVRQMVIALYNYSDYRTYLDKYTVYPNEMDKYCYSKKISKSVNITNDLIALYDKIVNNENGENMCKSIKCVLLKNTYNDYFVENATIEGSSLAEKIMLEIKREGAYPDISANKWKQQILDIIAKQDKDVYWASIFGEIDSSKGAILLSVIQEKEKKDSILSLIRVSDTKKLKALAEVAEDDNLARIIELGKAALRDEMNSEADFEYKKKLGEYVEELIRKEIDSKLKAGSHIMEVLSQQDGQDIIILLDGTAIYYIEVKSRWSQKDSVLMSALQFRTSVEEKTHYALCEVDMITYNRENVDKHEFPDVEETINRISAIMNIGVLNETLKDTLNQDSDQVHVGGDYKVVVPQTVWEEHGKHFNELVEEIKKIVEEKEGHHHHHH	soluble
MSLKVQGYANVVTLPNVTGRVIIVGDIHGCRAQLEDLLRAVSFKQGSDTLVAVGDLVNKGPDSFGVVRLLKRLGAYSVLGNHDAKLLKLVKKLGKKECLKGRDAKSSLAPLAQSIPTDVETYLSQLPHIIRIPAHNVMVAHAGLHPQRPVDRQYEDEVTTMRNLIEKEQEATGGVTLTATEETNDGGKPWASMWRGPETVVFGHDARRGLQEQYKPLAIGLDSRCVYGGRLSAAVFPGGCIISVPGWNGASAAAEGHHHHHH	soluble
MERGPLIFSASIGNGHNQAAKALQVEFQNKGYQPEIIDTFYSLSPALHKFMLTSYVNLLKVGPRIWQKIYFQAEKYPLFLFLDQFATFFVESLHATVKSNRCSFLVSTHPFVTAFLVRLKSKKQLNLPLYTVITDFVLHPAYLRPEIDGYFTSDPNFTDFAKLNNVSDDRFFPTGIPIPNLESIDQPKWKVRNDLGLDPQRKVLIIAGGGIGLTNYAQVIRALECLPEPIQLLCMIGHNYQVKEKISRIKSKHELKVIEFTDKFLLYLKASDAILSKAGGLTMAESLVCETPIIIHQPVPGHEEHNAKFLIDAGAALRVKGSKEIPTTIKRVLYEEACFGPMIENARKLKKPNAANEIVEQMLLLVKEQQHAFRLEHHHHHH	soluble
MGSDKIHHHHHHMRIEITPISESALVCRLNAPSELGKQQKLWAFAAALGQHDRIEEVVVGMNNLTVFTRFDTDLATLADELQYVWEHTAVTDHQGKLVEIPVCYGGEYGPDLAEVAAFHQTVISEIVRRHTAQTYTVFMMGFQPGFPYLGGLPEALHTPRRAVPRTSVPAGSVGIGGSQTGVYPFASPGGWQIIGRTELPLFRADLNPPTLLAAGDQVRFVAERIEP	not soluble
MEDRNNIYFFYKHTKSMQEAVEPLKQLATSQGLNVVDDVQKANIIVSVGGNNAFLQATRKTNFRSDCLYVGVSTDREGFYPDFTINEIDKMFEAFENQNIEVKRLSTLEVTIDDEKPFYCLNECSIRSNVIKTFVLEVFIDDMHFETFRGDGMIVSTPTGSTAYNKSVRGAVVDPRLPSLQVSEIASLNNNTYRTLGTSFLLSGDRTLRLKVVQDGNDFPIIGADNEALSIRHAEDIKIRLSDKQVKVLKLKDNTFWHKVQRNFLLEHHHHHH	soluble
MATMTTKSHCTFNPDYYQDVWQRFGEEEYDVVVIGGGSVGAGAGLDAAIRGLKVAVVESRDFAAGTSSRSSKMFHGGLRYLAMLDFKLVAESLHERELNMSTLAPHLVKPLKFLFPLTHHVWERVMMFGGFTLYDLMGGAKSVPMQKHYSRKGTLAMAPGLKDDAVVGSVRYFDTLVDDARHTMTVLRTAGELGADVRPSTQVVGFEKDGQRVVGAILQDTDTGEQTTIRGKVFINATGVWNDHIEKLAGGNGPFSVHASKGVHIVVPKNVFDADAAMCFVTEKSVLFVIPWGEYWIIGTTDTDWDLNRADPAPTAADINYILDEVNQRVRRPIQHSDIVGVYSGLRPLLSGKSDTTTKLSRNHAVAKVMPGLVSVAGGKYTTYRVIGKDAVDLATEDLDFRVPASESERTPILGADGYHALQNQAPRIARTFGTTEDVVEHLLGRYGSLVHEVLEPSVDKPELLEPIPGAPGYIKAEAVYAVTHEGALHVEDIVERRLRAGIEYADRGVAAAPAIAELVADYLGWDAERTAAEVTAFTDRVSAEIAAEKELTDKAANEHIVAGSAVRSYVDVSGDNLEHHHHHH	soluble
MKTLLPTSTAGSLPKPSWLAEPEKLWSPWKLQGEELIDGKRDALRVALQEQELAGVDIVSDGEQTRQHFVTTFIEHLSGVDFENRKTVTIRNRYEASVPTVVGPVSRTKPVFVEDAKFLRQQTKQPIKWALPGPMTMIDTLYDDHYGSREKLAWEFAKILNQEAKELEAAGVDIIQFDEPAFNVFFDDVNEWGIACLERAIEGLKCETAVHICYGYGIKANTDWKQTLGTEWRQYEEVFPKLQQSNIDIISLECHNSRVPIELLELIRGKKVMVGAIDVATNEIETPEEVANTLREALKYVDADKLYPCTNCGMAPLSREVSTAKLNALSAGAEIVRRELSALEHHHHHH	not soluble
EMVKLQSVITGSMQTGRSRARIEQAVVALLTYVEEETDAFQILVRDMKAGQDHSYSTLLNDAVEQVSHILGQAFERSGLNPKNATLYAQALVGMVSMTAQWWLDRRKEPNAATKEQVAAHIVNLCWNGLAGMEANPQLSNIDSPPETLGAH	not soluble
MDNHDDKSKSDRFCDINNNMTTQFDRLSINSDASLVITSSRLAMQGADETSDWTPNKYSWFKLVTPNPVETRVVQQKAQMKGLKIHKMVHNFIPSRKQGYLGYYNFDVKSYEESEKARNLFPTDFVDAFCCQHLLGKNEQEFVFHAVNENDLKILCCIATYCKETKLDAPLDPMQHLNNLNLFYEAINNERAFIIMKDFMSDNGMKYLCRLKKDITDIRDRRNNN	not soluble
LDINKPENVISKEVSFLGEALPKSIKSECPNESFTLDDKDVVKSTSGSVQNEPLKNINENIYDPKLKKALDKSKPEILIYHSHTTEAYKPYPADSLNSTQNVCAVGDELVKELGEKYGIYAINDKTVHNVVDYNKSYTRSGETLDKYLKQYGDFKMIIDMHRDSDVPKSKVTARINGEDVAKFMFVMTRKNPHFDKNMALVNGLVSICNKDFPGIFNGIYYYDYGINYYNQQKSNNAFLLEVGSDINTIDEAKGTSKYLARIIAEYLNGKK	not soluble
MVTFREMDISDYNEVIALWATTENVSLRDADSRPNIEAYLKRNQGLSFVAVSDSLVIGAVLVGTDGRRGYVQHLAVSSDFRGQGIGKSLIQKATDALSRIGISKTHLFVLIENVVAQDFYTKLDWYPRDEIRMFSYNSSSNPEV	not soluble
MAINNSAQKFIARNRAPRVQIEYDVEIYGSEKKIELPFVMAVLADLAGKPREELPPVTDRKFLDIDIDNFNERMKAIAPRVAFAVPNTLTGEGQLMVDITLENMDDFSPAQIARKVDALNQLLEARTQLANLQTYMDGKAGAENLVNKLLQDPTLLKTLANAPKSAATQQDVSADNESAE	not soluble
MGSDKIHHHHHHMNFSTTEIQTIFNANEAASAVLNQALEAAAQGTFAVGGMIVDNQTGNVICAMHNNVLKPLFGSSQNFTFDPTAHGERQLVYWYYANRHQLNLPDPEYLTIITTLDPCAMCAGTLLTAGFNVGVIAIDDFAGINYNQTFNFDTLPPDLRPLAKRKFGYYACGIKGVDPDIYVRGYVGGPNVAFKDSVVSVQNLTGCNNVFQANVEAVRNNSSNSGKAPQELFDPAALPDDAPVKLRYRELYADAFRLKIDNPRLPDKNLLDLLLYVKGSNPTAQNAVALLDPFGNVVLCMPDTFENSPVETAFMNVTQAYAITRYQLMNDPFARAQAYDYLTHPKYGTFVFLNAPNPADARTIMTLGAYGSTMEGPVPQIFPSNFQYYFLPQYGTEREFRLDIMNLPPFYTQLAQLSAMQVANY	not soluble
MYSKILGTGSYLPSQVRTNADLEKMVETSDEWIVARTGIRERRIAADNETVADMAFFAAQNAINMAGIDKHDIDMIIVATTSASHTFPSAACQVQGKLGIKGCPAFDLAAACSGFMYALSIADQHVKSGMCKHVLVIGADALSKTCDPTDRSTIILFGDGAGAVVVGASNEPGILSTHIHADGEFGDLLSLEVPVRGGDSDKWLHMAGNEVFKVAVTQLSKLVVDTLKANNMHKSELDWLVPHQANYRIISATAKKLSMSLDQVVITLDRHGNTSAATVPTALDEAVRDGRIQRGQMLLLEAFGGGFTWGSALVKF	not soluble
MAELRQVQVDIQQPGGIRELVQREAGDQVRGQDSFPGPDIRRVYQEVRYERRGKLICLIMAGGLGSRMNRPEKALIEVHGEALVDRTIRCMNGICSDIYALIDPSMERLQGKLRSVNVKVLAKRRGGYIEDLNHAMHSIGKFPILVIPGDIFIFNCSAFLDAVRRGMLAEANVVSFTDAGQYTGISIFNAQSGSYQDIDLNGSVANINTPEDLRAVIERLRTSEKLDGSAGHADG	not soluble
MKLRTKIKRVRDVELPKYAKTGDSGFDLVAAEDTVIWPGETKVVPTGLAFEIPPGYELQVRPRSGMTRNTKLRVVLGTVDSGYRGEVGVLVDNTEIPKATNMQAHVIEKGTRIAQGVIVPVITAHFEEVDELSDSERGSGGFGSTGVK	not soluble
MGHHHHHHSHMQQQETNLLANLTTNDARDNSKDFQNSKVGAAATSRDEGCNCPIIGEIVISCYWLFEIPPLISE	soluble
MLTQEQIMNALKHVEDPELHKSVVELNMVRNIQMNGTEVKLEVVLTIQGCPLKAKIQQDIEESLHAIGASKVEVTFGSMTQEERAALTEKLKRNTRTETGMPSMLRPDSGVRFITVTSGKGGVGKSTVTINLATALARMGKKVGILDADIYGFSIPAMMETNKKPTMIDQTAIPVISHGVKIMSMGFFTEGNNPVMWRGPMLNKWIQNFLANTHWGELDYLLLDLPPGTGDVAIDVAAMIPQAKEIIVTTPHNIASFVASRVGVMAKHTKHEILGIVENMAYYEEQDGSKNYLFGKGGGEMLAEQLQTEVIAKIPFAKREENNGSSVYDEDSLVGEVFTSLAEDIIYRGLEHHHHHH	soluble
